Results taken from PMC10184537 (ACS Nano, 2023).

Target: murine urokinase-type plasminogen activator (murine, UniProt P06869)
Assay: […]

Sequence of murine urokinase-type plasminogen activator (P06869 21-433): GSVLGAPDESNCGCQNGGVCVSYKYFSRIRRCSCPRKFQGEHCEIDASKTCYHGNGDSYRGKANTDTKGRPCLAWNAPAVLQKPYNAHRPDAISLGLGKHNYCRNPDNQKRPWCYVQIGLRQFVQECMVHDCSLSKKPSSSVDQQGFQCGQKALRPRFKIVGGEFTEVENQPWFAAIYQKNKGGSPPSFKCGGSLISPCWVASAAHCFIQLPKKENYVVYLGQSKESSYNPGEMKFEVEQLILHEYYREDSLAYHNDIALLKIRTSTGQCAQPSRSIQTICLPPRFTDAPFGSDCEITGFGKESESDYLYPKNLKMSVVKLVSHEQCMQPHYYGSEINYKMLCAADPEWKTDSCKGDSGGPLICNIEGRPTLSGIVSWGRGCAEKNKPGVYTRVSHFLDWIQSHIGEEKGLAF

B1: nb22 nanobody (VHH)
VHH: QVQLQESGGGLVQAGGSLRLSCAASGRTFSSYVMGWFRQAPGKEREFVAAISWSGGSTNYADSVKGRFTISRDNAKNTVYLQMNSLKPEDTAVYYCAADLASSRDVSSWYWGQGTQVTVSS
binding result: binds
